# Data published in US20150056222A1 (Regeneron, published 2015).
# Positions count from the first letter of the chain named. Numbers in names are those of the source.
# T1: human prolactin receptor (PRLR) on cells (human, UniProt P16471 25-622)
# T1 construct: T47D, T47D#11 and MCF7 carry the endogenous receptor; also called hPRLR; HEK293/hPRLR
# T1 sequence: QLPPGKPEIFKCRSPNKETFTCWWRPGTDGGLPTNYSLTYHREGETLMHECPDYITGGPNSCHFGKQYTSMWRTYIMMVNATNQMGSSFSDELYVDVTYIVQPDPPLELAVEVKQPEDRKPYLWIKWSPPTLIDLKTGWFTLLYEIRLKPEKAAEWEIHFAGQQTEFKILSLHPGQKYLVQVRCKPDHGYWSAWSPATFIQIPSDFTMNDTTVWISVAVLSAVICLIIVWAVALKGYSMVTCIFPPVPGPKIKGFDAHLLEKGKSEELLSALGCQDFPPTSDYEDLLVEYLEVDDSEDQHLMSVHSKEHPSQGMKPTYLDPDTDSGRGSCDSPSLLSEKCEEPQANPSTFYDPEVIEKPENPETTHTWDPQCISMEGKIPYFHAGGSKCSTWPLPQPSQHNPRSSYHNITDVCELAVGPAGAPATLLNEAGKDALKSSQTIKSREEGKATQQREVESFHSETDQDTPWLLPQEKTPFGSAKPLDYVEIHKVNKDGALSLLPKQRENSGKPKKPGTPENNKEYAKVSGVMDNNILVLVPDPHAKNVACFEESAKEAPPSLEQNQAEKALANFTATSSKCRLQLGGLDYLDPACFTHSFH
# T2: mouse PRLR on HEK293 cells (mouse, UniProt Q08501 20-608)
# T2 construct: whole, on cells; also called mPRLR; HEK293/mPRLR
# T2 sequence (looked up): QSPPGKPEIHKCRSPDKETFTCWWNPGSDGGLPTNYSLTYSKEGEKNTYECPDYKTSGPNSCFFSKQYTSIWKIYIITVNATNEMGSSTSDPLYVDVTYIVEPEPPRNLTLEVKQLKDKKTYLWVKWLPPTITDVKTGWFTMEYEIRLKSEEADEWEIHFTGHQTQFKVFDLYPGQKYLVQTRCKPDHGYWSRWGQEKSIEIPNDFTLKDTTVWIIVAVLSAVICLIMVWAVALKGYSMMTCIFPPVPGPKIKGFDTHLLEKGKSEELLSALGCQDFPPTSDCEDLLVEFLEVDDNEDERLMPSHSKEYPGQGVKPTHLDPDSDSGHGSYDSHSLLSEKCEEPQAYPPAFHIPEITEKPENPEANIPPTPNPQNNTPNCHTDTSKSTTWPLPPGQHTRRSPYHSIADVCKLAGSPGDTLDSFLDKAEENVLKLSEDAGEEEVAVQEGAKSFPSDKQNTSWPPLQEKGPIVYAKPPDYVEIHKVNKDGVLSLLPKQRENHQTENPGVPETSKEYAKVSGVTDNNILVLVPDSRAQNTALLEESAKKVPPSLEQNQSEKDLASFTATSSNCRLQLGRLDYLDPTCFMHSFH
# T3: hPRLR.mFc (soluble dimeric human PRLR) (human)
# T3 construct: dimeric construct
# T3 chain: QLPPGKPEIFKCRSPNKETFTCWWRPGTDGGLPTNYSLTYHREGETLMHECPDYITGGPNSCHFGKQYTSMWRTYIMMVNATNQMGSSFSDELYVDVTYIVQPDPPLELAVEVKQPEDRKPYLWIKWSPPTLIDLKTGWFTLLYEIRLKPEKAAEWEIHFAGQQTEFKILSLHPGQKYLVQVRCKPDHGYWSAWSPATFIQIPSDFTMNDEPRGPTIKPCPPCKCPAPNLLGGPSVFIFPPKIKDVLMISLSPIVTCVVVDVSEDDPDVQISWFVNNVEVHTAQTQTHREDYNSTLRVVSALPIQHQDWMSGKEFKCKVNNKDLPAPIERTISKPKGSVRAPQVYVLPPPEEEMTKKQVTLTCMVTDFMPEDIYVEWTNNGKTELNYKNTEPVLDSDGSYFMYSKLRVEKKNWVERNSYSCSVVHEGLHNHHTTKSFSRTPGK
# T4: hPRLR.mmh (soluble monomeric human PRLR) (human)
# T4 construct: soluble monomeric construct
# T4 chain: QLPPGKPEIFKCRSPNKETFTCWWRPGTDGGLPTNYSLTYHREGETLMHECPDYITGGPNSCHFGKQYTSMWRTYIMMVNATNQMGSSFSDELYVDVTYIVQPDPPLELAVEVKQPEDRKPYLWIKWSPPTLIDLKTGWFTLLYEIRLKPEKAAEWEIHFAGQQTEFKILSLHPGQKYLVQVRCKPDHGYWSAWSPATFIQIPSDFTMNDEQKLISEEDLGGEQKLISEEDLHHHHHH
# T5: mfPRLR.mmh (soluble monomeric macaca fascicularis PRLR) (macaca fascicularis)
# T5 construct: soluble monomeric construct; also called macaca fascicularis (mf) PRLR.mmh
# T5 chain: T4 chain with I76V, A110T, I125M, I158T, T207I
# T6: monkey (macaca fascicularis) PRLR on HEK293 cells (macaca fascicularis, UniProt A0A2K5WXK1 25-619)
# T6 construct: also called mfPRLR; HEK293/mfPRLR
# T6 sequence: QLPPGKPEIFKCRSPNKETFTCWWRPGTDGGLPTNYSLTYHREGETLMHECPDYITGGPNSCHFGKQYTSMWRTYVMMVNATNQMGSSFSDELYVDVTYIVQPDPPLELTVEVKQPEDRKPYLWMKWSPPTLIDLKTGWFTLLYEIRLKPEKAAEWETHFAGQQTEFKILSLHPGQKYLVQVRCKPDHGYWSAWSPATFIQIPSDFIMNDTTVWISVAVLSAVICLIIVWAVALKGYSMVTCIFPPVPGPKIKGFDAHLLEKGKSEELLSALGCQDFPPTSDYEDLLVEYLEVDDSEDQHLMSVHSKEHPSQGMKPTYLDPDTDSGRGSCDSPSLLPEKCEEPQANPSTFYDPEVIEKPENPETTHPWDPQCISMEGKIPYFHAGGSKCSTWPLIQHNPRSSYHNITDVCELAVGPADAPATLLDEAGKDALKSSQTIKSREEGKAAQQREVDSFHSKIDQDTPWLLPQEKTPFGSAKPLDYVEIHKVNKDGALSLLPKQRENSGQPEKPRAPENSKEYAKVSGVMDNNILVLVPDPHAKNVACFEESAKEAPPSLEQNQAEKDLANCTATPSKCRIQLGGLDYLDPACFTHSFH
# B1: H1H6792P (antibody, human IgG1, V domains shown)
# VH: EVQLVESGGGLVQPGRSLRLSCAASGFTLDDHAVHWVRQAPGKGLEWVSGISWNSVYIDYADSVKGRFTIFRDNAKNSLYLQMNSLRAEDTAFYYCARDIEGARDYWGQGTLVTVSS
# VL: DIQMTQSPSSLSASVGDRVTITCRASQGIRNDLGWYQQKPGKAPKRLIYAASSLQSGVPSRFSGSGYGTEFTLTISSLQPEDFAPYYCLQHNSYPLTFGGGTKVEIK
# notes: human IgG1 Fc (H1H)
# B2: H1H6774P (antibody, human IgG1, V domains shown)
# VH: EVQLVESGGGLAQPGGSLRLSCVASGFTFSTYWMSWVRQAPGKGLDWVGNIKQDGSEQNYVDSVRGRFTISRDNAKNSLFLQMNSLRAEDTGVYYCATLLTKGDYWGQGTLVTVSS
# VL: DIQMTQSPSSLSASVGDSVTITCRASQDISNYLDWFQQKPGKAPKSLIYAASILQGGVPSRFSGSGYGTDFTLTISSLQPEDFATYYCRQYKTYPFTFGPGTKVDIK
# notes: human IgG1 Fc (H1H)
# B3: H1H6967N (antibody, human IgG1, V domains shown)
# VH: EVQLVESGGDLVHPGRSLRLSCAASGFPFDEYAMHWVRQVPGKGLEWVSGISWSNNNIGYADSVKGRFTISRDNAKNSLYLQMNSLRPEDTAFYYCAKSGIFDSWGQGTLVTVSS
# VL: EIVMTQSPATLSVSPGERATLSCRASQSVSRDLAWYQQKPGQAPRLLIHGASTRATGIPARFSGSGSGAEFTLIISSLQSEDFAVYYCQQYNNWPLTFGGGTKVEIK
# notes: also called H2M6967N
# B4: H1H6785P (antibody, human IgG1, V domains shown)
# VH: EVQLVESGGGLVQPGGSLRLSCAASGFTFSSYEMNWVRQAPGKGLEWISYISSRGGTIYYADSIKGRFTIYRDNARNSLYLQMNSLRAEDTAIYYCARLSGVDIFDIWGQGTMVTVSS
# VL: DIQMTQSPSSLSASVGDRVTITCRASQGISNYLAWYQQKPGKVPKLLIYFASTLQSGVPSRFSGGGSGTDFTLTISSLQPEDVATYYCQRYNSAPLTFGGGTKVEIK
# notes: human IgG1 Fc (H1H)
# B5: H1H6781P (antibody, human IgG1, V domains shown)
# VH: EVQLVESGGDLVQPGESLRLSCTASGFTFNSYEMNWVRQAPGKGLEWVSYISSSGGTKYYVDSVKGRFTISRDNAKKSLYLQMNSLRADDTALYYCARLNGVDVFDIWGQGTMVTVSS
# VL: B4 VL with G28D, S30F, Y36F, K45E, Y49S, F50A, G65S, D70Y, V83I
# notes: human IgG1 Fc (H1H)
# B6: H1H6783P (antibody, human IgG1, V domains shown)
# VH: QVQLQQSGPGLVKPSQTLSLTCAISGDSVSSNTFAWNWIRQSPSRGLEWLGRTYYRSKWYIDYAESVKSRITITPDTSKNQFSLQLNSVTPEDTALYYCAGGYTYAPRGAFDIWGQGTMVTVSS
# VL: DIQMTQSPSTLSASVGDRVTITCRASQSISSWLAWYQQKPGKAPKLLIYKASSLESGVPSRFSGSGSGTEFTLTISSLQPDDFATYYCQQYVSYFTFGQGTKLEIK
# notes: human IgG1 Fc (H1H)
# B7: H1H6958N2 (antibody, human IgG1, V domains shown)
# VH: QVQLVESGGGVVQPGRSLRLSCGASGFTFRNYGMQWVRQGPGKGLEWVTLISFDGNDKYYADSVKGRFTISRDNSKNTLFLQMNSLRTEDTAVYYCARGGDFDYWGQGTLVTVSS
# VL: DIQMTQSPSSLSASVGDRVTITCRASQDIRKDLGWYQQKPGKAPKRLIYAASSLHSGVPSRFSGSGSGTEFTLTISSLQPEDFATYYCLQHNSYPMYTFGQGTKLEIK
# notes: also called H2M6958N2
# Biological target: T1, human prolactin receptor (PRLR) on cells
# Assay: FACS, T47D cells (native PRLR); further: test concentration or dose not given here
row,Binder,FACS Cell Binding (Fold Above Background)
1,B1,37 fold above background
2,B2,39 fold above background
3,B3,41 fold above background
4,B4,40 fold above background
5,B5,40 fold above background
6,B6,38 fold above background
7,B7,37 fold above background

# Biological target: T2, mouse PRLR on HEK293 cells
# Assay: FACS, HEK293/mPRLR cells; further: test concentration or dose not given here
row,Binder,FACS Cell Binding (Fold Above Background)
1,B1,3 fold above background
2,B2,1 fold above background
3,B3,2 fold above background
4,B4,2 fold above background
5,B5,1 fold above background
6,B6,1 fold above background
7,B7,1 fold above background

# Biological target: T3, hPRLR.mFc (soluble dimeric human PRLR)
# Assay: SPR, 37C, mAb capture
# Method: (§1) Measurements were conducted on a T200 Biacore instrument. Kinetic association (kₐ) and dissociation (kd) rate constants were determined by processing and fitting the data to a 1:1 binding model using Scrubber 2.0 curve fitting software. Binding dissociation equilibrium constants (KD) and dissociative half-lives (t_{1/2}) were calculated from the kinetic rate constants as: KD (M)=kd/kₐ; and […].
row,Binder,T½
1,B1,66 min
2,B2,60 min
3,B3,119 min
4,B4,99 min
5,B5,117 min
6,B6,83 min
7,B7,83.3 min

# Biological target: T4, hPRLR.mmh (soluble monomeric human PRLR)
# Assay: SPR, 37C, mAb capture
# Method: as §1
row,Binder,T½
1,B1,5 min
2,B2,4 min
3,B3,12.4 min
4,B4,24 min
5,B5,37 min
6,B6,7 min
7,B7,8.8 min

# Biological target: T5, mfPRLR.mmh (soluble monomeric macaca …)
# Assay: SPR, 37C, mAb capture
# Method: as §1
row,Binder,T½
1,B1,4 min
2,B2,3 min
3,B3,7.1 min
4,B4,26 min
5,B5,43 min
6,B6,9 min
7,B7,8.6 min

# Biological target: T1, human prolactin receptor (PRLR) on cells
# Assay: cell-based or functional assay
row,Binder,"% Internalization relative to Control I (alexa488 intensity in intracellular vesicles at 37 C, T47D cells)"
1,B1,156%
2,B2,162%
3,B3,169%
4,B4,169%
5,B5,165%
6,B6,161%
7,B7,169%

# Biological target: T6, monkey (macaca fascicularis) PRLR on …
# Assay: FACS, HEK293/mfPRLR cells; further: test concentration or dose not given here
row,Binder,FACS Cell Binding (Fold Above Background)
1,B1,28 fold above background
2,B2,29 fold above background
3,B3,28 fold above background
4,B4,26 fold above background
5,B5,26 fold above background
6,B6,27 fold above background
7,B7,30 fold above background

# Biological target: T1, human prolactin receptor (PRLR) on cells
# Assay: FACS, HEK293/hPRLR cells; further: test concentration or dose not given here
row,Binder,FACS Cell Binding (Fold Above Background)
1,B1,37 fold above background
2,B2,1 fold above background
3,B3,38 fold above background
4,B4,37 fold above background
5,B5,37 fold above background
6,B6,37 fold above background
7,B7,35 fold above background
